The series concerns the molecule itself. As to the kind of experiment: SEC. A general note: SEC sorts molecules by how far they enter the pores of the column.

B1: S. cerevisiae homologue of GAP (Rna1), recombinant (natural protein, UniProt P11745 1-407, looked up)
chain: MATLHFVPQHEEEQVYSISGKALKLTTSDDIKPYLEELAALKTCTKLDLSGNTIGTEASEALAKCIAENTQVRESLVEVNFADLYTSRLVDEVVDSLKFLLPVLLKCPHLEIVNLSDNAFGLRTIELLEDYIAHAVNIKHLILSNNGMGPFAGERIGKALFHLAQNKKAASKPFLETFICGRNRLENGSAVYLALGLKSHSEGLKVVKLYQNGIRPKGVATLIHYGLQYLKNLEILDLQDNTFTKHASLILAKALPTWKDSLFELNLNDCLLKTAGSDEVFKVFTEVKFPNLHVLKFEYNEMAQETIEVSFLPAMEKGNLPELEKLEINGNRLDEDSDALDLLQSKFDDLEVDDFEEVDSEDEEGEDEEDEDEDEKLEEIETERLEKELLEVQVDDLAERLAETEIK
Consider B1, for which the binding result is “binds”.

These data come from article doi:10.1101/2020.01.04.893909 (bioRxiv, 2020).
